Laboratory results as given in patent US20230012273A1 (Boehringer Ingelheim, published 2023).
Residue numbers refer to the chain shown, from its start.

B1: Antibody A (antibody, human IgG1, kappa, L234A L235A)
heavy: not shown
light: DIQMTQSPSSLSASVGDRVTITCRASQDINNYLAWFQQKPGKAPKSLIYTASSLHSGVPSKFSGSGSGTDFTLTISSLQPEDFATYYCQQYVSYPYTFGQGTKLEIKRTVAAPSVFIFPPSDEQLKSGTASVVCLLNNFYPREAKVQWKVDNALQSGNSQESVTEQDSKDSTYSLSSTLTLSKADYEKHKVYACEVTHQGLSSPVTKSFNRGEC
B2: Antibody A10 (antibody, human IgG1, kappa, L234A L235A)
heavy: not shown
light: B1 light
B3: Antibody C (antibody, human IgG1, kappa, L234A L235A, V domains shown)
VH: EVQLVESGGGLVQPGGSLRLSCAASGFTFSSYDMHWVRQATGKGLEWVSVIGIAGDTYYPGSVKGRFTISRENAKNSLYLQMNSLRVGDTAVYYCARGGSWDDAFDIWGQGTMVTVSS
VL: DIQMTQSPSSLSASIGDKVTITCRASQDINNYLAWFQQKPGKAPKSLIYTASSLQSGVPSKFSGSGSGTDFTLTISSLQPEDFATYYCQQYVSYPYTFGQGTKLEIKR
B4: Antibody D (antibody, human IgG1, kappa, L234A L235A, V domains shown)
VH: B3 VH with Y32F, A40P, V50T, Y59F, V87A, S100N, F105L
VL: B3 VL with I15V, K18R, V92N, S93T
B5: Antibody E (antibody, human IgG1, kappa, L234A L235A)
heavy: not shown
light: DIVMTQSPLSLPVTPGEPASISCKSSQSLLYSNGYNYLDWYLQRPGQSPQLLIYLGSNRASGVPDRFSGSGSGTDFTLKISRVEAEDVGVFYCMQALQTPLTFGGGTKVEIKRTVAAPSVFIFPPSDEQLKSGTASVVCLLNNFYPREAKVQWKVDNALQSGNSQESVTEQDSKDSTYSLSSTLTLSKADYEKHKVYACEVTHQGLSSPVTKSFNRGEC
B6: Antibody E22 (antibody, human IgG1, kappa, L234A L235A, V domains shown)
VH: QVQLQESGPGLVKPSETLSLTCTVSGGSIRDYYWSWIRQPPGKGLEWIGFIYYNGRTFYQSSLKSRVTISLDTSKNQFSLKMTSVTAADTAVYYCARVRAYSGIGLDGTDVWGQGTTVTVSS
VL: DIVMTQSPLSLPVTPGEPASISCRSSQSLLYSTGYTYLDWYLQRPGQSPQLLIYGGSSRASGVPDRFSGSGSGTDFTLKISRVEAEDVGVFYCGQALQTPLTFGQGTKVEIKR
B7: Antibody B (antibody, human IgG1, kappa, L234A L235A, V domains shown)
VH: QVQLVQSGAEVKKPGASVKVSCKASGYTFTGNYMHWVRQAPGQGLEWMGWINPNSGGTNYAQKFQGRVTMTRDTSISTAYMELSRLRSDDTAVYYCVSGSGWYENYYYYGMDVWGQGTTVTVSS
VL: DIQMTQSPSSVSASVGDRVTITCRASQGISSWLAWYQQKPGKAPKLLIYAESSLQSGVPSRFSGSGSGTDFTLTISSLQPEDFATYYCQQANSFPLTFGGGTKVEIKR
B8: Anti-SIRPα antibody KWAR23 (antibody, V domains shown)
VH: EVQLQQSGAELVKPGASVKLSCTASGFNIKDYYIHWVQQRTEQGLEWIGRIDPEDGETKYAPKFQDKATITADTSSNTAYLHLSSLTSEDTAVYYCARWGAYWGQGTLVTVSS
VL: QIVLTQSPAIMSASPGEKVTLTCSASSSVSSSYLYWYQQKPGSSPKLWIYSTSNLASGVPARFSGSGSGTSYSLTISSMEAEDAASYFCHQWSSYPRTFGAGTKLELK

The binders below were run against ED-tagged human SIRPα V1 receptor on Jurkat signaling reporter cells (human, UniProt P78324 31-504) (assay: cell-based or functional assay).

Blockade of Cellular CD47-Mediated SIRPα Signaling; IC50 [nM]	Binder
0.04	B1
0.04	B2
0.04	B3
0.04	B4
0.04	B5
0.07	B6
0.76	B7

What follows are binders tested against ED-tagged human SIRPα V2 receptor on Jurkat signaling reporter cells (human, UniProt P78324 31-504) (assay: cell-based or functional assay).

Blockade of Cellular CD47-Mediated SIRPα Signaling; IC50 [nM]	Blockade of Cellular CD47-Mediated SIRPα Signaling; IC50 (* Inhibition plateaus at <100%) [nM]	Binder
0.04		B1
0.04		B2
0.03		B3
0.04		B4
	0.04	B5
	0.07	B6

These binders were tested against T1, full-length human SIRPαV1 (NP_542970.1) on cells (human, UniProt P78324 31-504) (assay: flow cytometry, Expi-CHO cells).
T1 construct: one molecule for CHO-K1 and Expi-CHO transfectants (NP_542970.1) and for endogenous V1 on U-937 cells and on CD14+ monocytes of V1/V1 donors; also called CHO-hSIRPαV1; αV1 WT
Procedure: (§1) Expi-CHO parental cells are transduced with lentiviruses containing either full-length wild-type human SIRPαV1 allele (NP_542970.1) or full-length human SIRPαV1 with amino acid point mutations (Table 56) and sorted to achieve matching expression levels. These cells are blocked with donkey IgG and incubated on ice with increasing concentrations of antibodies for 60 minutes, washed and stained with AF647-conjugated donkey F(ab′)₂ anti-human IgG antibodies. Stained cells are washed, fixed, and analyzed by flow cytometry. Median fluorescent intensity is determined and used as a measure of antibody binding.

EC50 [nM]	Binder
0.3	B3
0.3	B4
0.5	B5
0.8	B6
0.3	B8
3.8	B7

These binders were tested against T2, full-length human SIRPαV1 N→E on Expi-CHO cells (human, UniProt P78324 31-504) (assay: flow cytometry, Expi-CHO cells).
T2 construct: the entry already carries the change (TKRN to TKRE)
Procedure: as §1

EC50 [nM]	Binder
0.3	B3
0.3	B4
0.5	B5
0.9	B6
0.5	B8
4.5	B7

What follows are binders tested against T3, full-length human SIRPαV1 D→E on Expi-CHO cells (human, UniProt P78324 31-504) (assay: flow cytometry, Expi-CHO cells).
T3 construct: the entry already carries the change (PDDV to PEDV)
Procedure: as §1

EC50 [nM]	Binder
0.2	B3
0.2	B4
0.4	B5
0.7	B6
0.2	B8
3.7	B7

What follows are binders tested against T4, full-length human SIRPαV2 (CAA71403.1) on cells (human, UniProt P78324 31-504) (assay: flow cytometry, Expi-CHO cells).
T4 construct: one molecule for CHO-K1 and Expi-CHO transfectants (CAA71403.1) and for endogenous V2 on THP-1 cells and on CD14+ monocytes of V2/V2 donors; also called CHO-hSIRPαV2; αV2 WT
Procedure: as §1, with “SIRPαV2” for “SIRPαV1”, “(CAA71403.1)” for “(NP_542970.1)”, “58)” for “56)”

EC50 [nM]	Binder
0.2	B3
0.2	B4
0.3	B5
0.4	B6
0.2	B8
3.6	B7

Each binder was assayed against T5, full-length human SIRPαV2 E→N on Expi-CHO cells (human, UniProt P78324 31-504) (assay: flow cytometry, Expi-CHO cells).
T5 construct: the entry already carries the change (TKRE to TKRN)
Procedure: as §1, with “SIRPαV2” for “SIRPαV1”, “(CAA71403.1)” for “(NP_542970.1)”, “58)” for “56)”

EC50 [nM]	Binder
0.2	B3
0.2	B4
0.3	B5
0.4	B6
0.2	B8
4.1	B7

What follows are binders tested against T6, full-length human SIRPαV2 D→E on Expi-CHO cells (human, UniProt P78324 31-504) (assay: flow cytometry, Expi-CHO cells).
T6 construct: the entry already carries the change (SPDT to SPET)
Procedure: as §1, with “SIRPαV2” for “SIRPαV1”, “(CAA71403.1)” for “(NP_542970.1)”, “58)” for “56)”

EC50 [nM]	Binder
0.2	B3
0.6	B4
0.3	B5
0.4	B6
0.2	B8
3.7	B7

The binders below were run against T7, full-length human SIRPβL H→D on Expi-CHO cells (human, UniProt Q5TFQ8 30-398) (assay: flow cytometry, Expi-CHO cells).
T7 construct: the entry already carries the change (PDHV to PDDV); also called βL WT H→D
Procedure: Expi-CHO parental cells are transduced with lentiviruses containing either full-length wild-type human SIRPβL (Q5TFQ8) or full-length human SIRPβL with a single amino acid point mutation (Table 62) and sorted to achieve matching expression levels. These cells are blocked with donkey IgG and incubated on ice with increasing concentrations of antibodies for 60 minutes, washed and stained with AF647-conjugated donkey F(ab′)₂ anti-human IgG antibodies. Stained cells are washed, fixed, and analyzed by flow cytometry. Median fluorescent intensity is determined and used as a measure of antibody binding.
A single amino acid substitution (H→D) introduced within the loop region maintained, strengthened, or facilitated antibody binding to these cells (FIG. 34B, Table 63).

EC50 [nM]	Binder
0.5	B1
0.6	B2
0.3	B3
0.2	B4
0.5	B5
0.7	B6
0.5	B8

The binders below were run against T1, full-length human SIRPαV1 (NP_542970.1) … (assay: flow cytometry, CD14+ monocytes V1V1).
Procedure: (§2) Antibody binding to primary human cells expressing SIRPα is evaluated by flow cytometry. Human peripheral blood mononuclear cells (PBMCs) from donors genotyped as homozygous for the SIRPα V1 allele, V2 allele, or heterozygous for both alleles are blocked with donkey IgG and incubated on ice with increasing concentrations of antibody for 60 minutes, washed and stained with AF647-conjugated donkey F(ab′)₂ anti-human IgG secondary reagent. […] Cells are washed, fixed, and analyzed by flow cytometry. Median fluorescent intensity of the CD14+ population was determined and used as a measure of antibody binding.

EC50 [nM]	Binder
0.6	B3
0.3	B4
0.4	B5
0.8	B6
0.2	B8
26.6	B7

What follows are binders tested against T4, full-length human SIRPαV2 (CAA71403.1) … (assay: flow cytometry, CD14+ monocytes V2V2).
Procedure: as §2

EC50 [nM]	Binder
0.3	B3
0.2	B4
0.7	B5
0.4	B6
0.1	B8
21.8	B7

The binders below were run against T1, full-length human SIRPαV1 (NP_542970.1) … (assay: flow cytometry, competition with CD47 tetramer, monocytes V1V1).
Procedure: Cells are washed, fixed, and analyzed by flow cytometry. Median fluorescent intensity of CD14+gated population is determined and used as a measure of CD47 binding.

IC50 [nM]	Binder
0.04	B3
0.03	B4
0.09	B5
0.25	B6
0.07	B8
2.55	B7

What follows are binders tested against T8, full-length human SIRPγ E→D on Expi-CHO cells (human, UniProt Q9P1W8 29-387) (assay: flow cytometry, Expi-CHO cells expressing full-length human SIRPγ E→D).
T8 construct: the entry already carries the change (PENV to PDNV)
Procedure: as §1, with “SIRPγ” for “SIRPαV1 allele”, “SIRPγ” for “SIRPαV1”, “64)” for “56)”

binding result	Binder
no binding (tested: about 67 nM)	B1
no binding (tested: about 67 nM)	B2
no binding (tested: about 67 nM)	B5
no binding (tested: about 67 nM)	B6

What follows are binders tested against T9, full-length human SIRPβ1 D→H on Expi-CHO cells (human, UniProt O00241 30-398) (assay: flow cytometry, Expi-CHO cells expressing full-length human SIRPβ1 D→H).
T9 construct: the entry already carries the change (PDDV to PDHV)
Procedure: These cells are blocked with donkey IgG and incubated on ice with increasing concentrations of antibodies for 60 minutes, washed and stained with AF647-conjugated donkey F(ab′)₂ anti-human IgG antibodies. Stained cells are washed, fixed, and analyzed by flow cytometry. Median fluorescent intensity is determined and used as a measure of antibody binding.

binding result	Binder
no binding (tested: about 67 nM)	B1
no binding (tested: about 67 nM)	B2
no binding (tested: about 67 nM)	B3
no binding (tested: about 67 nM)	B4
no binding (tested: about 67 nM)	B5
no binding (tested: about 67 nM)	B6
